In general, stoichiometry N refers to the number of molecules, sites or subunits per partner or assembly.

This is an account of results in PMC4724879 (Chemical science (Royal Society of Chemistry : 2010), 2014).

The data set deals with the molecule itself. The data set is described as follows: crystal structure.

B1: Helicobacter pylori high temperature requirement A protein (HpHtrA) (enzyme)
chain: GNIQIQSMPKVKERVSVPSKDDTIYSYHDSIKDSIKAVVNISTEKKIKNNFIGGGVFNDPFFQQFFGDLGGMIPKERMERALGSGVIISKDGYIVTNNHVIDGADKIKVTIPGSNKEYSATLVGTDSESDLAVIRITKDNLPTIKFSDSNDISVGDLVFAIGNPFGVGESVTQGIVSALNKSGIGINSYENFIQTDASINPGNSGGALIDSRGGLVGINTAIISKTGGNHGIGFAIPSNMVKDTVTQLIKTGKIERGYLGVGLQDLSGDLQNSYDNKEGAVVISVEKDSPAKKAGILVWDLITEVNGKKVKNTNELRNLIGSMLPNQRVTLKVIRDKKERAFTLTLAERKNPNKKETISAQNGAQGQLNGLQVEDLTQETKRSMRLSDDVQGVLVSQVNENSPAEQAGFRQGNIITKIEEVEVKSVADFNHALEKYKGKPKRFLVLDLNQGYRIILVK
Take B1: the “stoichiometry N” value was 6.
